T1: VDAC of isolated rat mitochondria (liver, brain), Q9Z2L0
T1 chain: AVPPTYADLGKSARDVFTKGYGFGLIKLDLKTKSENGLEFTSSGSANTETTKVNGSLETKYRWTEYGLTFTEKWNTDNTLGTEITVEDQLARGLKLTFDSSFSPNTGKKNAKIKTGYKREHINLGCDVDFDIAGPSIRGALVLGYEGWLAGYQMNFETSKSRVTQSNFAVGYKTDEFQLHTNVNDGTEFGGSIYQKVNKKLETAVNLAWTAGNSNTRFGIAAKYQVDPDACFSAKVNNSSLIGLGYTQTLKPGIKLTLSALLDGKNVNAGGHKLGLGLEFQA

T2: native mVDAC1 (mouse VDAC1), purified recombinant
T2 chain: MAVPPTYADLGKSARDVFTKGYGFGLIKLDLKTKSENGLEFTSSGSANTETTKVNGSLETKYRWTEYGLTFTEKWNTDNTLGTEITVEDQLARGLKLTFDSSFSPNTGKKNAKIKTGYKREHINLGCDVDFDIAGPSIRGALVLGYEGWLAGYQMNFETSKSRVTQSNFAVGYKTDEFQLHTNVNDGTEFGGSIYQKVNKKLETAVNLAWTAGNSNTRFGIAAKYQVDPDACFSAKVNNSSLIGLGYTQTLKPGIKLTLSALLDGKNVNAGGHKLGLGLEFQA


Legend:
[1] = target: T1, VDAC of isolated rat mitochondria …
[2] = target: E72Q-mVDAC1, purified recombinant
[3] = target: T2, native mVDAC1 (mouse VDAC1), purified …

Protein | PTP opening (swelling of energized mitochondria) [1] | VDAC1 channel closure in a planar lipid bilayer (currents before and 5 min after HK-I, 28.6 mU/ml) [2] | PTP opening (Ca2+ accumulation and swelling of energized mitochondria) [1] | release of cytochrome c from mitochondria (Western blot) [1] | VDAC1 channel closure in a planar lipid bilayer (currents before and 5 min after HK-I, 28.6 mU/ml) [3]
chymotrypsin-treated HK-I (protein) FTELKDDQVKKIDKYLYAMRLSDEILIDILTRFKKEMKNGLSRDYNPTASVKMLPTFVRSIPDGSEKGDFIALDLGGSSFRILRVQVNHEKNQNVSMESEIYDTPENIVHGSGTQLFDHVADCLGDFMEKKKIKDKKLPVGFTFSFPCRQSKIDEAVLITWTKRFKASGVEGADVVKLLNKAIKKRGDYDANIVAVVNDTVGTMMTCGYDDQQCEVGLIIGTGTNACYMEELRHIDLVEGDEGRMCINTEWGAFGDDGSLEDIRTEFDRELDRGSLNPGKQLFEKMVSGMYMGELVRLILVKMAKEGLLFEGRITPELLTRGKFNTSDVSAIEKDKEGIQNAKEILTRLGVEPSDVDCVSVQHICTIVSFRSANLVAATLGAILNRLRDNKGTPRLRTTVGVDGSLYKMHPQYSRRFHKTLRRLVPDSDVRFLLSESGTGKGAAMVTAVAYRLAEQHRQIEETLAHFRLSKQTLMEVKKRLRTEMEMGLRKETNSKATVKMLPSFVRSIPDGTEHGDFLALDLGGTNFRVLLVKIRSGKKRTVEMHNKIYSIPLEIMQGTGDELFDHIVSCISDFLDYMGIKGPRMPLGFTFSFPCHQTNLDCGILISWTKGFKATDCEGHDVASLLRDAVKRREEFDLDVVAVVNDTVGTMMTCAYEEPTCEIGLIVGTGTNACYMEEMKNVEMVEGNQGQMCINMEWGAFGDNGCLDDIRTDFDKVVDEYSLNSGKQRFEKMISGMYLGEIVRNILIDFTKKGFLFRGQISEPLKTRGIFETKFLSQIESDRLALLQVRAILQQLGLNSTCDDSILVKTVCGVVSKRAAQLCGAGMAAVVEKIRENRGLDHLNVTVGVDGTLYKLHPHFSRIMHQTVKELSPKCTVSFLLSEDGSGKGAALITAVGVRLRGDPSIA | The failure of non-binding species of HK, such as yeast HK, or trypsin- or chymotrypsin-treated HK-I (FIG. 2D) to prevent PTP opening |  |  |  | 
Rat brain HK-I (hexokinase-I), purified (protein) MIAAQLLAYYFTELKDDQVKKIDKYLYAMRLSDEILIDILTRFKKEMKNGLSRDYNPTASVKMLPTFVRSIPDGSEKGDFIALDLGGSSFRILRVQVNHEKNQNVSMESEIYDTPENIVHGSGTQLFDHVADCLGDFMEKKKIKDKKLPVGFTFSFPCRQSKIDEAVLITWTKRFKASGVEGADVVKLLNKAIKKRGDYDANIVAVVNDTVGTMMTCGYDDQQCEVGLIIGTGTNACYMEELRHIDLVEGDEGRMCINTEWGAFGDDGSLEDIRTEFDRELDRGSLNPGKQLFEKMVSGMYMGELVRLILVKMAKEGLLFEGRITPELLTRGKFNTSDVSAIEKDKEGIQNAKEILTRLGVEPSDVDCVSVQHICTIVSFRSANLVAATLGAILNRLRDNKGTPRLRTTVGVDGSLYKMHPQYSRRFHKTLRRLVPDSDVRFLLSESGTGKGAAMVTAVAYRLAEQHRQIEETLAHFRLSKQTLMEVKKRLRTEMEMGLRKETNSKATVKMLPSFVRSIPDGTEHGDFLALDLGGTNFRVLLVKIRSGKKRTVEMHNKIYSIPLEIMQGTGDELFDHIVSCISDFLDYMGIKGPRMPLGFTFSFPCHQTNLDCGILISWTKGFKATDCEGHDVASLLRDAVKRREEFDLDVVAVVNDTVGTMMTCAYEEPTCEIGLIVGTGTNACYMEEMKNVEMVEGNQGQMCINMEWGAFGDNGCLDDIRTDFDKVVDEYSLNSGKQRFEKMISGMYLGEIVRNILIDFTKKGFLFRGQISEPLKTRGIFETKFLSQIESDRLALLQVRAILQQLGLNSTCDDSILVKTVCGVVSKRAAQLCGAGMAAVVEKIRENRGLDHLNVTVGVDGTLYKLHPHFSRIMHQTVKELSPKCTVSFLLSEDGSGKGAALITAVGVRLRGDPSIA |  | HK-I is able to close native VDAC1 but not mutated E72Q-VDAC1 (SEQ ID NO:43) | HK-I inhibited PTP opening | HK-I prevented the release of cytochrome c from mitochondria | HK-I is able to close native VDAC1
trypsin-treated HK-I (protein) MIAAQLLAYYFTELKDDQVKKIDKYLYAMRLSDEILIDILTRFKKEMKNGLSRDYNPTASVKMLPTFVRSIPDGSEKGDFIALDLGGSSFRILRVQVNHEKNQNVSMESEIYDTPENIVHGSGTQLFDHVADCLGDFMEKKKIKDKKLPVGFTFSFPCRQSKIDEAVLITWTKRFKASGVEGADVVKLLNKAIKKRGDYDANIVAVVNDTVGTMMTCGYDDQQCEVGLIIGTGTNACYMEELRHIDLVEGDEGRMCINTEWGAFGDDGSLEDIRTEFDRELDRGSLNPGKQLFEKMVSGMYMGELVRLILVKMAKEGLLFEGRITPELLTRGKFNTSDVSAIEKDKEGIQNAKEILTRLGVEPSDVDCVSVQHICTIVSFRSANLVAATLGAILNRLRDNKGTPRLRTTVGVDGSLYKMHPQYSRRFHKTLRRLVPDSDVRFLLSESGTGKGAAMVTAVAYRLAEQHRQIEETLAHFRLSKQTLMEVKKRLRTEMEMGLRKETNSKATVKMLPSFVRSIPDGTEHGDFLALDLGGTNFRVLLVKIRSGKKRTVEMHNKIYSIPLEIMQGTGDELFDHIVSCISDFLDYMGIKGPRMPLGFTFSFPCHQTNLDCGILISWTKGFKATDCEGHDVASLLRDAVKRREEFDLDVVAVVNDTVGTMMTCAYEEPTCEIGLIVGTGTNACYMEEMKNVEMVEGNQGQMCINMEWGAFGDNGCLDDIRTDFDKVVDEYSLNSGKQRFEKMISGMYLGEIVRNILIDFTKKGFLFRGQISEPLKTRGIFETKFLSQIESDRLALLQVRAILQQLGLNSTCDDSILVKTVCGVVSKRAAQLCGAGMAAVVEKIRENRGLDHLNVTVGVDGTLYKLHPHFSRIMHQTVKELSPKCTVSFLLSEDGSGKGAALITAVGVRLRGDPSIA | The failure of non-binding species of HK, such as yeast HK, or trypsin- or chymotrypsin-treated HK-I (FIG. 2D) to prevent PTP opening |  |  |  | 

Source: patent publication US20120214741
